In patent publication US20050244864A1, “Development and use of fluorescent probes of unbound analytes” (priority 2004, published 2005):

Key:
Format in all cases: binding
[1] = Probe fluorescence ratio response to linolenate:BSA complex, relative to ADIFAB2 (ΔR/ΔRAD2); conditions: fluorescence response (R-Ro) relative to ADIFAB2; linolenate
Procedure, shortened: (§1)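 Fatty acids presented as BSA complexes (6 μM BSA in HEPES) set to ΔR ≈0.4 with ADIFAB2, i.e. unbound FFA 100-1000 nM. Background-subtracted ratio from excitation 375 nm, emission 550/457 nm; ΔR versus fatty-acid-free BSA, divided by the ADIFAB2 ΔR.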

[2] = Probe fluorescence ratio response to palmitate:BSA complex, relative to ADIFAB2 (ΔR/ΔRAD2); conditions: fluorescence response (R-Ro) relative to ADIFAB2; palmitate
Procedure, shortened: as §1

[3] = Probe fluorescence ratio response to arachidonate:BSA complex, relative to ADIFAB2 (ΔR/ΔRAD2); conditions: fluorescence response (R-Ro) relative to ADIFAB2; arachidonate
Procedure, shortened: as §1

[4] = Probe fluorescence ratio response to oleate:BSA complex, relative to ADIFAB2 (ΔR/ΔRAD2); conditions: fluorescence response (R-Ro) relative to ADIFAB2; oleate
Procedure, shortened: as §1

[5] = Probe fluorescence ratio response to linoleate:BSA complex, relative to ADIFAB2 (ΔR/ΔRAD2); conditions: fluorescence response (R-Ro) relative to ADIFAB2; linoleate
Procedure, shortened: as §1

[6] = Probe fluorescence ratio response to palmitoleate:BSA complex, relative to ADIFAB2 (ΔR/ΔRAD2); conditions: fluorescence response (R-Ro) relative to ADIFAB2
[7] = Probe fluorescence ratio response to stearate:BSA complex, relative to ADIFAB2 (ΔR/ΔRAD2); conditions: fluorescence response (R-Ro) relative to ADIFAB2

Molecule	ΔR/ΔRAD2 LNA [1]	ΔR/ΔRAD2 PA [2]	ΔR/ΔRAD2 AA [3]	ΔR/ΔRAD2 OA [4]	ΔR/ΔRAD2 LA [5]	ΔR/ΔRAD2 POA [6]	ΔR/ΔRAD2 SA [7]
L1P5 A10: acrylodan-labeled rI-FABP mutein: Y14 wt, L38 wt, L72 wt, Y117 A (protein, UniProt P02693 2-132, looked up, variant Y117A, acrylodan label, acrylodan-labeled rI-FABP mutein: Y14 wt, L38 wt, L72 wt, Y117 A) Fatty acid-binding protein, …: AFDGTWKVDRNENYEKFMEKMGINVVKRKLGAHDNLKLTITQEGNKFTVKESSNFRNIDVVFELGVDFAYSLADGTELTGTWTMEGNKLVGKFKRVDNGKELIAVREISGNELIQTATYEGVEAKRIFKKE	0.7	0.4	1.5	1.1	1.2		
L2P21G3: acrylodan-labeled rI-FABP-L72A mutein: M18 I, G31 M, F55 M, A73 WT (protein, UniProt P02693 2-132, looked up, variant M18I G31M F55M L72A, acrylodan label, acrylodan-labeled rI-FABP-L72A mutein: M18 I, G31 M, F55 M, A73 WT) Fatty acid-binding protein, …: AFDGTWKVDRNENYEKFIEKMGINVVKRKLMAHDNLKLTITQEGNKFTVKESSNMRNIDVVFELGVDFAYSAADGTELTGTWTMEGNKLVGKFKRVDNGKELIAVREISGNELIQTYTYEGVEAKRIFKKE	1.4	1.1	1.0	0.6	1.1	1.4	0.3
L2P7F4: acrylodan-labeled rI-FABP-L72A mutein: M18 V, G31 V, F55 WT, A73 I (protein, UniProt P02693 2-132, looked up, variant M18V G31V L72A A73I, acrylodan label, acrylodan-labeled rI-FABP-L72A mutein: M18 V, G31 V, F55 WT, A73 I) Fatty acid-binding protein, …: AFDGTWKVDRNENYEKFVEKMGINVVKRKLVAHDNLKLTITQEGNKFTVKESSNFRNIDVVFELGVDFAYSAIDGTELTGTWTMEGNKLVGKFKRVDNGKELIAVREISGNELIQTYTYEGVEAKRIFKKE	1.5	1.3	0.8	0.6	1.1	1.3	0.3
L2P1E6: acrylodan-labeled rI-FABP-L72A mutein: M18 L, G31 WT, F55 WT, A73 L (protein, UniProt P02693 2-132, looked up, variant M18L L72A A73L, acrylodan label) Fatty acid-binding protein, …: AFDGTWKVDRNENYEKFLEKMGINVVKRKLGAHDNLKLTITQEGNKFTVKESSNFRNIDVVFELGVDFAYSALDGTELTGTWTMEGNKLVGKFKRVDNGKELIAVREISGNELIQTYTYEGVEAKRIFKKE	0.1	0.0	0.4	0.1	0.1	0.1	0.2
L2P8F11: acrylodan-labeled rI-FABP-L72A mutein: M18 WT, G31 WT, F55 WT, A73 I (protein, UniProt P02693 2-132, looked up, variant L72A A73I, acrylodan label, acrylodan-labeled rI-FABP-L72A mutein: M18 WT, G31 WT, F55 WT, A73 I) Fatty acid-binding protein, …: AFDGTWKVDRNENYEKFMEKMGINVVKRKLGAHDNLKLTITQEGNKFTVKESSNFRNIDVVFELGVDFAYSAIDGTELTGTWTMEGNKLVGKFKRVDNGKELIAVREISGNELIQTYTYEGVEAKRIFKKE	0.1	0.0	0.4	0.0	0.0	0.1	0.3
L1P7 H4: acrylodan-labeled rI-FABP mutein: Y14 I, L38 M, L72 W, Y117 wt (protein, UniProt P02693 2-132, looked up, variant Y14I L38M L72W, acrylodan label, acrylodan-labeled rI-FABP mutein: Y14 I, L38 M, L72 W, Y117 wt) Fatty acid-binding protein, …: AFDGTWKVDRNENIEKFMEKMGINVVKRKLGAHDNLKMTITQEGNKFTVKESSNFRNIDVVFELGVDFAYSWADGTELTGTWTMEGNKLVGKFKRVDNGKELIAVREISGNELIQTYTYEGVEAKRIFKKE	−1.1	−0.6	−1.0	−1.4	−1.3		
L1P12 E11: acrylodan-labeled rI-FABP mutein: Y14 L, L38 wt, L72 W, Y117 wt (protein, UniProt P02693 2-132, looked up, variant Y14L L72W, acrylodan label) Fatty acid-binding protein, …: AFDGTWKVDRNENLEKFMEKMGINVVKRKLGAHDNLKLTITQEGNKFTVKESSNFRNIDVVFELGVDFAYSWADGTELTGTWTMEGNKLVGKFKRVDNGKELIAVREISGNELIQTYTYEGVEAKRIFKKE	−0.7	−0.1	−0.5	−1.0	−0.7		
L2P22H10: acrylodan-labeled rI-FABP-L72A mutein: M18 I, G31 WT, F55 G, A73 M (protein, UniProt P02693 2-132, looked up, variant M18I F55G L72A A73M, acrylodan label, acrylodan-labeled rI-FABP-L72A mutein: M18 I, G31 WT, F55 G, A73 M) Fatty acid-binding protein, …: AFDGTWKVDRNENYEKFIEKMGINVVKRKLGAHDNLKLTITQEGNKFTVKESSNGRNIDVVFELGVDFAYSAMDGTELTGTWTMEGNKLVGKFKRVDNGKELIAVREISGNELIQTYTYEGVEAKRIFKKE	1.3	1.1	0.9	0.6	1.1	1.2	0.4
L1P17 A1: acrylodan-labeled rI-FABP mutein: Y14 I, L38 wt, L72 W, Y117 wt (protein, UniProt P02693 2-132, looked up, variant Y14I L72W, acrylodan label) Fatty acid-binding protein, …: AFDGTWKVDRNENIEKFMEKMGINVVKRKLGAHDNLKLTITQEGNKFTVKESSNFRNIDVVFELGVDFAYSWADGTELTGTWTMEGNKLVGKFKRVDNGKELIAVREISGNELIQTYTYEGVEAKRIFKKE	−0.9	−0.4	−0.8	−1.2	−1.0		
L2P8B8: acrylodan-labeled rI-FABP-L72A mutein: M18 WT, G31 WT, F55 WT, A73 F (protein, UniProt P02693 2-132, looked up, variant L72A A73F, acrylodan label, acrylodan-labeled rI-FABP-L72A mutein: M18 WT, G31 WT, F55 WT, A73 F) Fatty acid-binding protein, …: AFDGTWKVDRNENYEKFMEKMGINVVKRKLGAHDNLKLTITQEGNKFTVKESSNFRNIDVVFELGVDFAYSAFDGTELTGTWTMEGNKLVGKFKRVDNGKELIAVREISGNELIQTYTYEGVEAKRIFKKE	1.8	1.1	1.1	0.6	1.2	2.4	0.4
L1P1 C3: acrylodan-labeled rI-FABP mutein: Y14 M, L38 wt, L72 W, Y117 wt (protein, UniProt P02693 2-132, looked up, variant Y14M L72W, acrylodan label) Fatty acid-binding protein, …: AFDGTWKVDRNENMEKFMEKMGINVVKRKLGAHDNLKLTITQEGNKFTVKESSNFRNIDVVFELGVDFAYSWADGTELTGTWTMEGNKLVGKFKRVDNGKELIAVREISGNELIQTYTYEGVEAKRIFKKE	−1.0	−0.4	−0.9	−1.3	−1.1		
L2P16A3: acrylodan-labeled rI-FABP-L72A mutein: M18 I, G31 L, F55 WT, A73 G (protein, UniProt P02693 2-132, looked up, variant M18I G31L L72A A73G, acrylodan label, acrylodan-labeled rI-FABP-L72A mutein: M18 I, G31 L, F55 WT, A73 G) Fatty acid-binding protein, …: AFDGTWKVDRNENYEKFIEKMGINVVKRKLLAHDNLKLTITQEGNKFTVKESSNFRNIDVVFELGVDFAYSAGDGTELTGTWTMEGNKLVGKFKRVDNGKELIAVREISGNELIQTYTYEGVEAKRIFKKE	1.5	1.1	1.0	0.6	1.1	1.4	0.3
L1P8 H2: acrylodan-labeled rI-FABP mutein: Y14 M, L38 M, L72 W, Y117 wt (protein, UniProt P02693 2-132, looked up, variant Y14M L38M L72W, acrylodan label, acrylodan-labeled rI-FABP mutein: Y14 M, L38 M, L72 W, Y117 wt) Fatty acid-binding protein, …: AFDGTWKVDRNENMEKFMEKMGINVVKRKLGAHDNLKMTITQEGNKFTVKESSNFRNIDVVFELGVDFAYSWADGTELTGTWTMEGNKLVGKFKRVDNGKELIAVREISGNELIQTYTYEGVEAKRIFKKE	−1.3	−0.6	−1.3	−1.7	−1.5		
L2P9E12: acrylodan-labeled rI-FABP-L72A mutein: M18 L, G31 WT, F55 L, A73 I (protein, UniProt P02693 2-132, looked up, variant M18L F55L L72A A73I, acrylodan label, acrylodan-labeled rI-FABP-L72A mutein: M18 L, G31 WT, F55 L, A73 I) Fatty acid-binding protein, …: AFDGTWKVDRNENYEKFLEKMGINVVKRKLGAHDNLKLTITQEGNKFTVKESSNLRNIDVVFELGVDFAYSAIDGTELTGTWTMEGNKLVGKFKRVDNGKELIAVREISGNELIQTYTYEGVEAKRIFKKE	0.9	1.1	0.6	0.6	0.7	0.8	0.4
L1P8 D4: acrylodan-labeled rI-FABP mutein: Y14 M, L38 wt, L72 M, Y117 A (protein, UniProt P02693 2-132, looked up, variant Y14M L72M Y117A, acrylodan label, acrylodan-labeled rI-FABP mutein: Y14 M, L38 wt, L72 M, Y117 A) Fatty acid-binding protein, …: AFDGTWKVDRNENMEKFMEKMGINVVKRKLGAHDNLKLTITQEGNKFTVKESSNFRNIDVVFELGVDFAYSMADGTELTGTWTMEGNKLVGKFKRVDNGKELIAVREISGNELIQTATYEGVEAKRIFKKE	2.0	0.9	1.6	1.1	2.0		
